Among the data in publication PMC7031110 (Cell, 2014) are Kd values, retold here.

The assay has as its target CaMKIIα (UniProt P11275 1-478). As to the kind of experiment: fluorescence polarisation.

CaMKIIα, sequence (P11275 whole entry): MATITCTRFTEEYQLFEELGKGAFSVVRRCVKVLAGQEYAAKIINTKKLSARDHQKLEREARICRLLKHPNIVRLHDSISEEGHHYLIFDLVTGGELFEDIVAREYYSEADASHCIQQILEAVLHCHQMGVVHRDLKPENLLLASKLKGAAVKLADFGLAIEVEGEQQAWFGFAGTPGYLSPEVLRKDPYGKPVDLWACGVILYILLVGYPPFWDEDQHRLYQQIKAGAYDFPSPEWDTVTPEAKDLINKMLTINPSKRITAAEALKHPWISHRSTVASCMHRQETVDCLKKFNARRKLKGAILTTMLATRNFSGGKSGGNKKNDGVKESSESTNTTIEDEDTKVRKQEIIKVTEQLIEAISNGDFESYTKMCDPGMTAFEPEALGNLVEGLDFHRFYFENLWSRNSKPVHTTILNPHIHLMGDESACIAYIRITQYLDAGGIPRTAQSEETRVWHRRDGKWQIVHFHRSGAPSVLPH

B1: IQ peptide TVGKFYATFLIQEYFR of Cav1.2/Cav1.3 (peptide)
peptide: TVGKFYATFLIQEYFR
For the molecule B1, binding was characterised by a dissociation constant (Kd) of 31 ± 7 nM.
